Results taken from the nanobody polyreactivity screen of Harvey et al. (2022).

Assay: yeast display, Sf9 membrane polyspecificity reagent, FACS + sequencing; frameworks hold sequencing errors
In short: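 Synthetic nanobody libraries on Saccharomyces cerevisiae BJ5465 were galactose-induced for 36–48 hours, stained 1 hour at 4 °C with 10% biotinylated, detergent-solubilized Sf9 membrane reagent and enriched on streptavidin microbeads. FACS then separated cells into low and high (top ~1%) gates by anti-HA (expression) and streptavidin (reagent binding) fluorescence. Genes were colony-PCR amplified, MiSeq 2 × 250 sequenced and CDR-length filtered. A clone's polyreactivity label is that of its gate of origin.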

| Sequence | polyreactivity (PSR sort gate) |
| --- | --- |
| QVQLVESGGGLVQAGGSLRLSCAASGSIFGYYAMGWYRQAPGKERELVAAITRGARTYYADSVKGRFTISRDNAKNTVYLQMNSLKPEDTAFYYCNRVPYYEGGNGSWGQGTQVTVSS | high polyreactivity |
| QVQLVESGGGLVQAGGSLRLSCAASGRTFAVYAMGWYRQAPGKERELVAAITYGGGRTSYADSVKGRFTISRDYAKNTVYFQMKRLKPEDTAVYSCAADYYGTDYDYWGQGTQVTVSS | low polyreactivity |
| QVQLVESGGGLVQAGGSLRLSCAASGIIFQRNDMGWYRQAPGKERELVANIRDGGITYADSVKGRFTISRDNAKNTVYLQMNRLKPEDTAVYYCARDDTSPGYGDQSSNAAYYYWGQGTQVTVSS | low polyreactivity |
| QVQLVESGGGLVQSGGSLRLSCAASGRISYYYAMGWYRQAPGKERELVARISKSGGSTYYADSVKGRFTISRDNAKNTVYLQMNSLKPVVTAVYFCAARWKTGYNYWGEGTQVTVSS | high polyreactivity |
| QVQLVESGGGLVQAGGSLRLSCAASGLSSLRMLWDGRDRRLGKKGSWLPLITSGGDSTNYADSVKGRFTISRDNAKNTVYLQMNSLKPEDTAVYYCAADLDYPYGYWGQGTQVTVSS | low polyreactivity |
| QVQLVESGVGLVQAGGSLRLSCASSGLTFNYYAIGWYRQAPGKERELVAAISSDGRTDYADSVKGRFTISRDNAKNTVYLQMNSLKPEDTAFYSCAVEYQSPDDYWGQGTQVTVSS | low polyreactivity |
| QVQLVESGGGLVQAGGSLRLSCAASGRILYSYAMGWYRQAPGKEREFVAAIRRSGGSTYYADSVKGRFSISRDNAKNTVYLQMNSLKPEDTAVYYCAAGRRYSGSYDYWGQGTQVTVSS | high polyreactivity |
| QVQLQESGGGLMQAGGSLRLSCAASGNIFLGHTKGWYRQAPGNEREFVAGIARGGNPYNADSVKGRFTISRNNAKNTVYLQKNSLKAEDTAVHYCGVQRSHASDYNYWGQGTQVTVSS | low polyreactivity |
| QVQLVESGGGLVEAGGSLRLSCAASASISGRYAMGSYRQAPGKERELVAAISWIGGSTYYADSVKGRFTISRDNAKNTVYLQMNSLKPEDTAVYYCNVTIDTRTHPLLVVFYGYDYWGQGTQVTVSS | low polyreactivity |
| QVQLVESGGGLDQAGGSLRLSCAASGSIFTYNVMGWYRQAPGKERELVAAISWDGDSTYYADSVKGRFTISRDNAMKTVYLQMNSLKAEDTAVYYCAADVHEKFQYDYWGQGNQVTVSS | high polyreactivity |
| QVQLVESGGGLVQAGGSLRLSCAASGGISYRYAMGWYRQAPGKERELVAAISGRGTSTYYADSVKGRFTISRDNAKNTVYLQMNSLKTEDTAVYYCNAQVGNFGYRSGGYDYWGQGTQVTVSS | high polyreactivity |
| QVQLGESGGGLVQAGGRLRLRCAASGIIFTKYAMGLYRQAPGKERELVAAITASGGSTYYADSVKGRFTISRDTAKNTVYLQMNSLKPEDTAVYYCAARSPSRYGYWGQGTQVTVSS | high polyreactivity |
| QVQLVESGGGLVQAGGSLRLSFADSGLILNFYAKSSYRQAPGKERELVAAISWNAGSTYYADSVKGRFTISREKSMNTGYVQMKSLKPEDTAVYYCAVLPGRYDKTASHYDYWGQGTQVTVSS | low polyreactivity |
| QDQLVESVGGLVQAGGSLRLSCAASGRTIDPNAMGWYRQAPGKERELVAAITRTGVRTYYADSVKGRFTISRDNAKNTVYLQMNSLKPEDTAVYYCAASYSGRQDRYPHYDYWGQGTQVTVSS | low polyreactivity |
| QVQLVESGGGLVQAGGSLRFSCAPSGITFRFYAMGCYRQAPGKESEFVAAISSRGGRTYYADSVKGRFTISRDYAKNTVYLQMNSLKPEDTAVYYCAAGKIGRYHYDYWGQGTQVTVSS | high polyreactivity |
| QVQLVESGGGLVQAGGSLRLSCAASGFIFAKYAMGWYRQAPGKEMELVAAITSGGSTNYADSVKGRFTISRDNAKNTVYLQMNSLKPDDTAVYYCNRGFDWWYRYRHYDYWGQGTQVTVSS | low polyreactivity |
| QVQLVESGGGLVQAGGSLRLSCAASGRIFTLYTMGWYRQAPGKERELVAAISSSGGRTYYADSVKGRFTISRDNAKNTVYLQMNSLKPEDTAVYYCNAGYWYYGQDDYWGQGTQVTVSS | high polyreactivity |
| QVQLVESGGGLVQAGGSLRIICAASGTTFVYNDMGWYRQAPGKEGELVAGITTSGGSTYYADSVKGRFTISRDNAKNTVYLQRNSLKPEDTAVYYWAAPAFSAWLEMDYWGQGTQVTVSS | low polyreactivity |
| QVQLVESGGGLVQAGGSLRLSCAASGRTFVINSMGWYRQAPGKERELVAAITWGGGSTYYADSVKGRFTISRDNAKNTVYLQMNSLKPEDTAVYYCATSYSVQYGGSGYYWGQGTQVTVSS | low polyreactivity |
| QDHLVESGGGLDQAGGSLRLSCAASGRILGDYAMGWYRQAPGKEREFVAAIDYNGGSTNYADSVKGRFTISRDNAKNTVYLQMNSLKPEDTAVYYCAAPGFPSRNGFGYWGQGTQVTVSS | low polyreactivity |
| QVQLVESGGGLVQAGGSLRLSCAASGSIFSLYAMGWYRQAPGKERELVAAITTSGGRTYYADSVKGRFTISRDNAKNTVYLQMNSLKPVDTAVYYCAKRYSTPYLTDNFLSGPGYYYWGQGTQVTVSS | high polyreactivity |

| Sequence | polyreactivity (PSR sort gate) |
| --- | --- |
| QVQLVEYVGGLVQAGGSLRLSCAASGRIFQYYARGWYRQAPGKERELVAAINSSGGRTYYADSVKGRFTISRDNAKNTVYLQMNSLKPEDTAVYDCNAVLSTRGMDYWGQGTQVTVSS | high polyreactivity |
| QVQLVESGGGLVQAGGSLRLSCAASGNTFYGYAMGWYRQAPGKERELVASITLSGDSTYYADSVKGRFTISRDNAKKTVYLQMNSLKPEDTAVYYCAGVYTYPLGYYHYTYDYWGQGTQVTVSS | low polyreactivity |
| QVQLVETAGGLVQAGGSLRLSSAASRSTFGPYAMGWYSQSPGKERELVAAISRRGTSTYYADSVKGRFTISRDNAKHTVYLQMNSLKPDDTAVYYCNAVTSSFYIRDSDYWGQGNQVTVSS | high polyreactivity |
| QVQLVESGGGLVQAGGSLRLSCAASGSIFVPYAMGWYRQAPGKERELVAAINHGGGRTYADSVKGRFTISRDNAKNTVYLQMNSLKPEDTAVYYCAADGAHKFGYYRYYYWGQGTQVTVSS | low polyreactivity |
| QVQLVESGGGLVQAGGSLSLSCAASGRIFATNAMGWYRQAPGKERELVATITRSDGRTYYAVSVKGRFTISRDNAMNSVYLEMNSLKPEDTAVYFCAAYYSDTEPGYREYDYWGQGTQVTLSS | low polyreactivity |
| QVQLVESGGGLVQAGGSLRLSCAASGSIFVYNAMGWYRQAPGKERELVAAITWSGGNTYYADSVKGRFTISRDNAKNTVYLEMNSLKPEDTAVSYCPAEFWQQGGWWEYDYWGQGTQVTVSS | low polyreactivity |
| QVQLVESGGGLVQAGGSLRLSCAASASIFDIYGMGWYRKAPGKERELVASISGGAGSTNYADSVKGRFTISRDNAKNTVYLQMNSLKPEDTAVYYCAADSADPTEYDYWGQGTQVTVSS | low polyreactivity |
| QVQLVESGGGLVQAGGSLRLSCAASGSTFTPYAMGWYRQAPGKERELVAAITWRTGSTRYADSVKGRFTISRDNAKNTVYLQMNSLKPEDTAVYYCAAKVTRFGAPGVNYWGQGTKVTVSS | high polyreactivity |
| QVQLVESGGGLVQAGGSIRLSCAASGRISTYYTMGWYRQAPGKERELVAAISWSGTSTYYADSVKGRFTISRDNAKNTVYLQMNSLKPEDTAVYYCNARWRYPLDSVTDDYWGQGTQVTVSS | high polyreactivity |
| QVQLVESVGGLVQAGGILRLSSAASGSTFERYAMGWDRQAPGKEREFVATINWGGGSTYYADSVKGRFTISRDNAKKTVYLQMNSLKPEDTAVDYCNAYVLYQSWRFSYDYWGQGTHVTVSS | low polyreactivity |
| QVQLVESGGGLVQAGGSLSLSCAATGRTFVKNAMGWYRQAPGKERELVASISRSGGSTYYADSVKGRFTISRDTAKNTVYLQMNSLKTEDTAVYYCNAAVYGGYSRSRYGYWGQGTQVTVSS | high polyreactivity |
| QVQLVESGGGLVQAGGSLRLSCAASGRIFGKYVMGWYRQAPGKERELVAAISRSGGSTSYADSVKGRFTISRDNAKNTVYLQMNSLKPEDTEVYYCAAGFLSGWWFAYDYWGQGTQVTVSS | high polyreactivity |
| QVQLVESGGGLVQAGGSLRLICAASGRTFRGYTMGWYRQAPGKERELVAAITWSGGSTYYADSVKGRFTISRDNAKNTVYLQMNSLKPEDTAVYYCAATKYLSFLYDYWGQGTLVTVSS | high polyreactivity |
| QVQLVESGGGLVQAGGSLRLSCAASGFIFRWYAKGWYRQAPGKERELVATITRSGGSTYYADSVKGRFTSSRDNAKNTVYLQMNSLKPEDTAVYYCNAGYSYKYYYWGQGTQVTVSS | high polyreactivity |
| QVKLVESGGGFLQAGGRLRLSCAASGIIFYYYAMGRYRQAPGKERELVAAISSGGSTYYSDSVKGRFTISRDNAMNTVYLQMNSLKPEDTAVYYCAADPLYTIDIEYSTYGDYDYWGQGTQVTVSS | low polyreactivity |
| QVQLEESGGGLVQAGGSLRVSCAASGRTSEIYTLGGYRTAPGKERELVASINTNYADSGKGRFTISRDIAKNTVYLQLISLKPDDTAVYYCNADDTIEFNYWGQGTQVTVSW | low polyreactivity |
| QVQLVESGGGLVQAGGSLRLSCAASGRIFASYAMGWYRQAPGKERELVAAISLSGGSTYYADSVKGRFTISRDNAKNTVYLQMNSLKPEDTAVYYCNARAIGWRIYDYWGQGTQVTVSS | high polyreactivity |
| QVQHVESGGGLVQAGGSLRLSCAASGYISVGYAMGWSRQAPGKERELVAAITESGGSTYYADSVKGRFTISRDNAKNTVYLQMNSLKPEDTAVYYCAADVIYEDRMDYWGQGTQVTVSS | low polyreactivity |
| QVHLLESWGGLFHAGGSPRLSCAASGRTFGRYAMGWYRQSPATERELVAAITFRGGHSYYADSVKGRFTISRDNAKNTVYFQMNSLKPEDTAVYYCAKRGGYWHKFDYWGQGTQVTVSS | high polyreactivity |
| QVQLEESGGGLVQAGGSLRLCCAASGRTFYYAMGWYRQATGKDRYADSVKGRFTISRDNAKNTVYLQMNSLKPDDTSVYYCAAKVTEPPSLDDSDYWGQGTQVTVSS | low polyreactivity |
